Source: paper PMC8643277

Key:
MBP-NLRP3 deltaPYD = MBP-NLRP3 deltaPYD (UniProt Q96P20 134-1034); test: EMSA
GFP-NLRP6 monomer = molecular target: T1, GFP-NLRP6 monomer (Homo sapiens, UniProt P59044 1-892); test: MST
T1 sequence: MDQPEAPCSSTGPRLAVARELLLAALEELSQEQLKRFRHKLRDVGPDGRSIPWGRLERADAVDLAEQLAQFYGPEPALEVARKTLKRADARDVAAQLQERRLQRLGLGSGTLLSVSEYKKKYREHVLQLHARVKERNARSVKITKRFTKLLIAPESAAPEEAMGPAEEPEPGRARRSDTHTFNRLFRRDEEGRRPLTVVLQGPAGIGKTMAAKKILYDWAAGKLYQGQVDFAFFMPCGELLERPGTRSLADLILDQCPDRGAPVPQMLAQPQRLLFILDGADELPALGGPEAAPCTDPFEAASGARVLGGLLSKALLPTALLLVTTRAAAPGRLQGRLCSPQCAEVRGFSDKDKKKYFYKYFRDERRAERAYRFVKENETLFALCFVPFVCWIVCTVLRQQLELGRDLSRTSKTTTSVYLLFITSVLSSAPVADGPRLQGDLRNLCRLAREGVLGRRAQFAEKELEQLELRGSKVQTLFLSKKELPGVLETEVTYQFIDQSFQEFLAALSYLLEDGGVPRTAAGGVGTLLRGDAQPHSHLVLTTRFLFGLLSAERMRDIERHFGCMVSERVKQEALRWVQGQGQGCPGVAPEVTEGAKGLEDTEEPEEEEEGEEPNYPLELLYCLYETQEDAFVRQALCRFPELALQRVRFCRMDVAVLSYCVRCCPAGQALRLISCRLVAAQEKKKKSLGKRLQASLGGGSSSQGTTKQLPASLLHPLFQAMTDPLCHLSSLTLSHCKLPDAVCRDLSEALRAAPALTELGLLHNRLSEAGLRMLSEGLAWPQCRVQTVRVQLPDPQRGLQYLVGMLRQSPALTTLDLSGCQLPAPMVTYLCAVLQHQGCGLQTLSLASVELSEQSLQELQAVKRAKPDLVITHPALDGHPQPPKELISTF

MBP-NLRP3 deltaPYD, sequence (Q96P20 134-1034, stated change not applied): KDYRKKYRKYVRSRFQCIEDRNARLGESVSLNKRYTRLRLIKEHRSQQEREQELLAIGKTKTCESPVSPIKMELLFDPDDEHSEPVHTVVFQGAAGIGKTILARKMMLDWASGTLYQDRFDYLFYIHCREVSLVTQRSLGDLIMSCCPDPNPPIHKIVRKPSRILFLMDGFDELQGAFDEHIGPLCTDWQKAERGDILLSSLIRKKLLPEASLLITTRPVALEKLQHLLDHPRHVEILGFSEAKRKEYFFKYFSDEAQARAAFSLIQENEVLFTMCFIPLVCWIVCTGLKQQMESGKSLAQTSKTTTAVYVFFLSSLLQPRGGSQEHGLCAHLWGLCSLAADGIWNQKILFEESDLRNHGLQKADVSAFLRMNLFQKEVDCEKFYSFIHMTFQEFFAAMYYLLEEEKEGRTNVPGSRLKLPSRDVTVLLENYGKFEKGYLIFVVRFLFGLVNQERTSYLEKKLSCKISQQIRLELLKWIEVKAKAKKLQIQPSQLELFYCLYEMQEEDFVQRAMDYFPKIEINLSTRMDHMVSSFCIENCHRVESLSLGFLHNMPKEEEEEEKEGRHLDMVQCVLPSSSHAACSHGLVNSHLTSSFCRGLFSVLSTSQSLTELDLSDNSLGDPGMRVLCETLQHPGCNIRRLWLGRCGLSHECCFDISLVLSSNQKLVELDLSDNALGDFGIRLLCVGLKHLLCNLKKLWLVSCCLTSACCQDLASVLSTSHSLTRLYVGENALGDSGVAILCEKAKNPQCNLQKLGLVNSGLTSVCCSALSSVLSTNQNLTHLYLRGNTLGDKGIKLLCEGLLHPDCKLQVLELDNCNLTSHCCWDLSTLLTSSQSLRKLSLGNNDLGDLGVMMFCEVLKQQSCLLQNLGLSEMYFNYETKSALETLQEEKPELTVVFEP

B1: 20-bp dsRNA (dsRNA)
RNA 1: GACCUUCUGAUCAGAAGGUC
RNA 2: GACCUUCUGAUCAGAAGGUC
B1 was tested, and the binding result (MBP-NLRP3 deltaPYD) was “no binding” and the Kd (GFP-NLRP6 monomer) was roughly 1.2 µM.
